Our source for the stoichiometry N and Kd values is PMC5469503 (PLoS Pathogens, 2017).

The target in assay [1] is V-ATPase from S. cerevisiae, intact, detergent solubilized (A3B3CDE3FG3Hac8c'c''def), 3xFLAG on the A-subunit (S. cerevisiae) (UniProt P16140). In words: cryo-EM structure.
The target in assay [2] is T1, V1 subcomplex of the V-ATPase (Saccharomyces cerevisiae, UniProt P16140+P17255).
T1 construct: gene VMA1
In words: fluorescence titration (TNP-ATP emission). The settings on record: pH 7.9, 10.0 °C, 25 mM Tris-HCl, 0.15 M NaCl, 1 mM MgCl2, 0.5 mM DTT, 0.25 μM V1; nucleotide site.

What is called stoichiometry N is the number of molecules, sites or subunits per partner or assembly. In the case of “SidK, full length (residues 1 to 573) (natural protein)”, in assay [1], the stoichiometry N was 3.

As a reminder, the Kd is the concentration at which binding is half-saturated. Lower therefore signals a tighter complex. In assay [2], “2',3'-O-(2,4,6-trinitrophenyl) adenosine 5'-triphosphate [TNP-ATP]” gave a Kd of 160 ± 50 nM.
